Assay results taken from patent publication US11111484B2, “Streptococcus bacteriophage lysins for detection and treatment of gram positive bacteria” (priority 2011, dated 2021).
Several values for one entry are separate records, joined by “and”; a condition that tells them apart may be missing. Equal values may be shown once.

How the values were obtained:
S. suis 7997 (ST9) = experiment: ΔPlySs1 CFU analysis, 1 hr treatment; format: cell-based, Streptococcus suis
Protocol: (§1) Truncated PlySs1(ΔPlySs1) lysin activity was determined against different cell types. Given the above experiments, the following optimal buffering conditions were employed for all further in vitro experiments with ΔPlySs1: 20 mM phosphate buffer, pH=7.8, 2 mM EDTA. A range of lysin concentrations, from 6.5-130 μg/ml, were introduced to live S. suis cells in this buffer. Three strains were considered particularly relevant: 7711, the serotype 7 strain that encodes PlySs1; S735, the serotype 2 reference strain; and 7997, a highly virulent serotype 9 strain. In terms of bacterial viability, only the highest PlySs1-concentration (130 μg/ml) led to a >90% decrease in CFUs for 7711, S735, and 7997 after 1 hr treatment (TABLE 2). The lysin was also tested against actively-dividing cells in broth culture (strain 7711) (FIG. 20).
(§2) For two ΔPlySs1 concentrations (130 and 13 μg/ml), CFU analysis was conducted on S. suis strains S735, 7997, and 7711 after 1 hr treatment (optimal buffering conditions). In each experiment, the percentage-decrease in CFUs was determined for the treated sample versus the untreated. The range of the values observed (across 3 independent experiments) is reported here for each strain. The serotype of each strain is indicated in parentheses.

S. suis S735 (ST2) = experiment: ΔPlySs1 CFU analysis, 1 hr treatment; format: cell-based, Streptococcus suis
Protocol: as §1, §2

S. suis 7711 (ST7) = experiment: ΔPlySs1 CFU analysis, 1 hr treatment; format: cell-based, Streptococcus suis
Protocol: as §1, §2

S. equi 700400 = experiment: ΔPlySs1 OD600 lysis, 1 hr, optimal buffering conditions; format: cell-based, Streptococcus equi
S. suis strain 7711 = experiment: ΔPlySs1 biochemical characterization, turbidity reduction (OD600); format: cell-based, Streptococcus suis; conditions: for activity after 6 hours at 40° C. / activity after 6 hours at 45° C.: 6-hr incubation; for pH of maximal activity in bis-tris-propane: BTP 40 mM, pH 7.0-9.7, 110 μg/ml; for temperature at which activity completely abolished: held 30 min at 35° C.-60° C.; for effect of DTT on activity: pre-incubated 1 hr with 5 mM DTT
Protocol: The optimal biochemical conditions for PlySs1 were determined against live cells of the encoding S. suis strain (7711). For these experiments, activity was gauged through the degree of turbidity reduction (OD600) of an aqueous bacterial suspension following the addition of lysin. The pH-dependence of the enzyme was first addressed using two buffer sets with adjacent pH ranges, citrate/phosphate: 4.6-8.0; and bis-tris-propane (BTP): 7.0-9.7. An extended spectrum of lysis was observed, from 5.4-9.4 (FIG. 11A). In BTP, lysis was maximal from 8.2-9.0; at commensurate pH-values, however, the magnitude of the OD-drop was slightly more pronounced in citrate/phosphate (FIG. 11B).
The thermal stability of PlySs1 was examined by incubating the enzyme at various elevated temperatures prior to use (the OD-drop experiment itself was always conducted at 37° C.). When held at 35° C.-60° C. for 30 min, lysin activity was virtually unaffected until 50° C., at which point it was completely abolished (FIG. 14A). […] The latter corresponds to typical porcine body temperature.

S. sobrinus 6715 = experiment: ΔPlySs1 OD600 lysis, 1 hr, optimal buffering conditions; format: cell-based, Streptococcus sobrinus
L. monocytogenes HER1084 = experiment: as above; format: cell-based, Listeria monocytogenes
S. mutans U159 = experiment: as above; format: cell-based, Streptococcus mutans
MRSA = experiment: rat MRSA wound infection with sterile sand (foreign body); format: in vivo, rats; conditions: for CFU/Gram, AVG: 10 mg PlySs2 single dose, 15 rats, after 10 days, not true Avg since < values
Protocol: Animal experiments were initiated by determining the infectious dose of MRSA necessary to cause infection in the rat wound. […] However, when we added a foreign body ([…]), infection occurred at <10^8 CFUs. Specifically, incisions were made in the backs of the rats (5-6 cm in length) and a 2-3 mm incision was made in the underlying tissue. To this was added 100 mg sterile sand and 50 μl of MRSA. The wounds were stapled closed and the animals followed for 10 days and the wounds opened and examined for gross changes and tissue samples taken for bacteriological examination.
Samples (weighed and homogenized tissue) taken from the opened wound yielded about 10^7 CFU MRSA/gram of tissue. This model was very reproducible yielding the same results in at least 10 animals.
We used the model as described above to treat with PlySs2 lysin to determine the effects of the treatment. In this case, half of the animals receiving the MRSA and sand were treated with 10 mg PlySs2 in 50 ul of phosphate buffer (PB), control animals received PB instead 10 minutes after MRSA dosing. The animals were followed for 10 days. At this time the animals were analyzed for gross changes and microbiology. […] This is in sharp contrast to animals treated with a single dose of PlySS2.

S. pyogenes = experiment: CFU studies, bactericidal effect; format: cell-based, Streptococcus pyogenes; conditions: 128 μg/ml PlySs2, 1 hour
Protocol: Log-phase bacteria were resuspended in buffer A to an OD600 of 0.1 (=0.5 McFarland≈10^8 CFU/ml). PlySs2 was added at 128 μg/ml to polypropylene microtiter plates (Costar) in triplicate for each test organism. Plates were sealed and incubated at 37° C. with shaking every 5 minutes for 1 hour. After 1 hour of incubation, cells were serially diluted in 10-fold increments and plated on BHI. Triplicate controls for each strain were performed with buffer B replacing PlySs2.

B1: ΔPlySs1: truncated PlySs1 lysin, SEQ ID NO:2, N-terminal 254 amino acids: only N-terminal enzymatic and central binding domains (protein, listed as Streptococcus suis)
chain: MTINLETSIRWMSDRVGKVSYSMDYRNGPNSYDCSSAVYYALMAGGAISAGWAVNTEYMHDWLIRNGYVLVAENKPFNAQRHDVCILGKRGYSSGAGGHVVIFVDNVNVIHCNYARNGISIDNYNQVHRGMYYYLYRPANQPSISNKSLDQLVKETLAGVHGNGDTRKASLGSQYEAVMAVINGKASASEKSDEELAREVLAGKHGAGEDRKRSLGPRYEPVQAKVNELLKAKEKPSETAKNEPQTVQFKEDGDL
percentage-decrease in CFUs, range of 3 experiments (S. suis 7997 (ST9); 13 μg/ml): 16.8%-30.3%
percentage-decrease in CFUs, range of 3 experiments (S. suis 7997 (ST9); 130 μg/ml): 89.9%-93.9%
percentage-decrease in CFUs, range of 3 experiments (S. suis 7997 (ST9); 130 μg/ml, listed as PlySs1): > 90%
percentage-decrease in CFUs, range of 3 experiments (S. suis S735 (ST2); 13 μg/ml): 80.4%-92.6%
percentage-decrease in CFUs, range of 3 experiments (S. suis S735 (ST2); 130 μg/ml): 95.4%-99.5%
percentage-decrease in CFUs, range of 3 experiments (S. suis S735 (ST2); 130 μg/ml, listed as PlySs1): > 90%
percentage-decrease in CFUs, range of 3 experiments (S. suis 7711 (ST7); 13 μg/ml): 0%-35.6%
percentage-decrease in CFUs, range of 3 experiments (S. suis 7711 (ST7); 130 μg/ml): 95.3%-99.2%
percentage-decrease in CFUs, range of 3 experiments (S. suis 7711 (ST7); 130 μg/ml, listed as PlySs1): > 90%
lysis value after 1 hr (treated/untreated OD600 ratio) (S. equi 700400; 6.5 μg/ml): 0.48
lysis value after 1 hr (treated/untreated OD600 ratio) (S. equi 700400; 13 μg/ml): 0.25
lysis value after 1 hr (treated/untreated OD600 ratio) (S. equi 700400; 30 μg/ml): 0.15
lysis value after 1 hr (treated/untreated OD600 ratio) (S. equi 700400; 65 μg/ml): 0.07
lysis value after 1 hr (treated/untreated OD600 ratio) (S. equi 700400; 130 μg/ml): 0.09
effect of NaCl on bacteriolysis (S. suis strain 7711; 0-1000 mM NaCl): bacteriolysis varied little
activity after 6 hours at 40° C. (S. suis strain 7711): maintained essentially native activity
activity after 6 hours at 40° C. (S. suis strain 7711; listed as PlySs1): unaffected
activity after 6 hours at 45° C. (S. suis strain 7711): some loss of activity, though not complete
activity after 6 hours at 45° C. (S. suis strain 7711; listed as PlySs1): partial decrease in activity
pH of maximal activity in bis-tris-propane (S. suis strain 7711): 9.0
pH of maximal activity in bis-tris-propane (S. suis strain 7711; listed as PlySs1): 8.2-9.0
pH spectrum of lysis (S. suis strain 7711; citrate/phosphate 4.6-8.0 and BTP 7.0-9.7): 5.4-9.4
effect of EDTA on activity (S. suis strain 7711; excess EDTA): did not negatively impact activity
temperature at which activity completely abolished (S. suis strain 7711): complete loss of activity was observed between the 45 °C and 50 °C samples
temperature at which activity completely abolished (S. suis strain 7711; listed as PlySs1): 50 °C
effect of DTT on activity (S. suis strain 7711): activity was unchanged
effect of DTT on activity (S. suis strain 7711; listed as PlySs1): did not negatively impact activity
lysis value after 1 hr (treated/untreated OD600 ratio) (S. sobrinus 6715; 6.5 μg/ml): 0.64
lysis value after 1 hr (treated/untreated OD600 ratio) (S. sobrinus 6715; 13 μg/ml): 0.48
lysis value after 1 hr (treated/untreated OD600 ratio) (S. sobrinus 6715; 30 μg/ml): 0.39
lysis value after 1 hr (treated/untreated OD600 ratio) (S. sobrinus 6715; 65 μg/ml): 0.32
lysis value after 1 hr (treated/untreated OD600 ratio) (S. sobrinus 6715; 130 μg/ml): 0.23
lysis value after 1 hr (treated/untreated OD600 ratio) (L. monocytogenes HER1084; 6.5 μg/ml): 0.63
lysis value after 1 hr (treated/untreated OD600 ratio) (L. monocytogenes HER1084; 13 μg/ml): 0.52
lysis value after 1 hr (treated/untreated OD600 ratio) (L. monocytogenes HER1084; 30 μg/ml): 0.26
lysis value after 1 hr (treated/untreated OD600 ratio) (L. monocytogenes HER1084; 65 μg/ml): 0.14
lysis value after 1 hr (treated/untreated OD600 ratio) (L. monocytogenes HER1084; 130 μg/ml): 0.04
lysis value after 1 hr (treated/untreated OD600 ratio) (S. mutans U159; 6.5 μg/ml): 0.95
lysis value after 1 hr (treated/untreated OD600 ratio) (S. mutans U159; 13 μg/ml): 0.99
lysis value after 1 hr (treated/untreated OD600 ratio) (S. mutans U159; 30 μg/ml): 0.94
lysis value after 1 hr (treated/untreated OD600 ratio) (S. mutans U159; 65 μg/ml): 0.76
lysis value after 1 hr (treated/untreated OD600 ratio) (S. mutans U159; 130 μg/ml): 0.85

B2: PlySs2: Streptococcus suis prophage lysin, SEQ ID NO:3; N-terminal CHAP domain and C-terminal SH3-type 5 domain (protein, listed as Streptococcus suis)
chain: MTTVNEALNNVRAQVGSGVSVGNGECYALASWYERMISPDATVGLGAGVGWVSGAIGDTISAKNIGSSYNWQANGWTVSTSGPFKAGQIVTLGATPGNPYGHVVIVEAVDGDRLTILEQNYGGKRYPVRNYYSAASYRQQVVHYITPPGTVAQSAPNLAGSRSYRETGTMTVTVDALNVRRAPNTSGEIVAVYKRGESFDYDTVIIDVNGYVWVSYIGGSGKRNYVATGATKDGKRFGNAWGTFK
CFU/Gram, individual rats P1-P15 (MRSA; 10 mg PlySs2 single dose 10 minutes after MRSA, wound tissue after 10 days): <5.00E+01 CFU/Gram (10×) and 9.10E+01 CFU/Gram and 5.00E+01 CFU/Gram and 8.40E+02 CFU/Gram and 3.20E+02 CFU/Gram (2×)
CFU/Gram, AVG (MRSA): 1.41×10^2 CFU/Gram
CFU/Gram, AVG (MRSA; listed as PLYSS2): 1.41E+02 CFU/Gram
CFU Reduction vs Control (MRSA; AVG buffer / AVG PlySs2): CFU Reduction vs Control 3.02E+04
reduction of MRSA (MRSA; PlySs2 vs buffer, wound tissue after 10 days): > 4 logs
gross changes of wounds (MRSA; single dose of PlySS2, 10 days): did not exhibit pus or necrosis and exhibited better healing
reduction of colony forming units (CFUs) (S. pyogenes): 3 logs
